Numbering of substitutions follows the chain as printed. Blank lines part the entries; values can stand above or below the binder they belong to.
Biological target: T1, Human CD137 ECD (human)
T1 construct: entry includes C-terminal His-tag and biotin acceptor peptide; also called human CD137 extracellular domain; 4-1BB
Experiment: Biacore SPR, vs parent H183/L072

T1 sequence (chain, as listed by the source limits assumed): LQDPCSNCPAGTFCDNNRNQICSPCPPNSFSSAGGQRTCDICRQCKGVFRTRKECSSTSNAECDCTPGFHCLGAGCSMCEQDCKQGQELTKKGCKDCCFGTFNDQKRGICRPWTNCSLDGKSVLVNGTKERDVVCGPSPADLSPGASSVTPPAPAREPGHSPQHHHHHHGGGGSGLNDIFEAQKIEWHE

B1: H183/L072 VL S26L (antibody, name in Kabat numbering, V domains shown)
VH: QVQLVESGGGLVQPGRSLRLSCAASGFTFSNAWMHWVRQAPGKGLEWVAQIKDKGNAYAAYYAPSVKGRFTISRDDSKNSIYLQMNSLKTEDTAVYYCHYVHYASASTVLPAFGVDAWGQGTTVTVSS
VL: DIVMTQSPLSLPVTPGEPASISCQALQELVHMNRNTYLHWYQQKPGQAPRLLIYKVSNRFPGVPDRFSGSGSGTDFTLKISRVEAEDVGVYYCAQGTSVPFTFGQGTKLEIK
notes: Dual-Ig
fold change of affinity: 0.3 fold

B2: H183/L072 VL S26Y (antibody, name in Kabat numbering, V domains shown)
VH: B1 VH
VL: B1 VL with L26Y
notes: Dual-Ig
fold change of affinity: 0.2 fold

B4: H183/L072 VL S52Q (antibody, name in Kabat numbering, V domains shown)
VH: B1 VH
VL: B1 VL with L26S, S57Q
notes: Dual-Ig
fold change of affinity: 1 fold

B5: H183/L072 VL S52V (antibody, name in Kabat numbering, V domains shown)
VH: B1 VH
VL: B1 VL with L26S, S57V
notes: Dual-Ig
fold change of affinity: 1.3 fold

B7: H183/L072 VL S93I (antibody, name in Kabat numbering, V domains shown)
VH: B1 VH
VL: B1 VL with L26S, S98I
notes: Dual-Ig
fold change of affinity: 1.1 fold

B8: H183/L072 VL S52A (antibody, name in Kabat numbering, V domains shown)
VH: B1 VH
VL: B1 VL with L26S, S57A
notes: Dual-Ig
fold change of affinity: 1 fold

B9: H183/L072 VL S26R (antibody, name in Kabat numbering, V domains shown)
VH: B1 VH
VL: B1 VL with L26R
notes: Dual-Ig
fold change of affinity: 0.3 fold

B10: H183/L072 VL S93R (antibody, name in Kabat numbering, V domains shown)
VH: B1 VH
VL: B1 VL with L26S, S98R
notes: Dual-Ig
fold change of affinity: 1 fold

B11: H183/L072 VL S52L (antibody, name in Kabat numbering, V domains shown)
VH: B1 VH
VL: B1 VL with L26S, S57L
notes: Dual-Ig
fold change of affinity: 1.2 fold

B12: H183/L072 VL S52M (antibody, name in Kabat numbering, V domains shown)
VH: B1 VH
VL: B1 VL with L26S, S57M
notes: Dual-Ig
fold change of affinity: 1.1 fold

B15: H183/L072 VL T31A (antibody, name in Kabat numbering, V domains shown)
VH: B1 VH
VL: B1 VL with L26S, T36A
notes: Dual-Ig
fold change of affinity: 0.4 fold

B16: H183/L072 VL T31D (antibody, name in Kabat numbering, V domains shown)
VH: B1 VH
VL: B1 VL with L26S, T36D
notes: Dual-Ig
fold change of affinity: 0.1 fold

B18: H183/L072 VL S52D (antibody, name in Kabat numbering, V domains shown)
VH: B1 VH
VL: B1 VL with L26S, S57D
notes: Dual-Ig
fold change of affinity: 0.8 fold

B19: H183/L072 VL S52I (antibody, name in Kabat numbering, V domains shown)
VH: B1 VH
VL: B1 VL with L26S, S57I
notes: Dual-Ig
fold change of affinity: 1.4 fold

B20: H183/L072 VL S93N (antibody, name in Kabat numbering, V domains shown)
VH: B1 VH
VL: B1 VL with L26S, S98N
notes: Dual-Ig
fold change of affinity: 1 fold

B21: H183/L072 VL S26V (antibody, name in Kabat numbering, V domains shown)
VH: B1 VH
VL: B1 VL with L26V
notes: Dual-Ig
fold change of affinity: 0.3 fold

B23: H183/L072 VL S93H (antibody, name in Kabat numbering, V domains shown)
VH: B1 VH
VL: B1 VL with L26S, S98H
notes: Dual-Ig
fold change of affinity: 1.3 fold

B24: H183/L072 VL S52E (antibody, name in Kabat numbering, V domains shown)
VH: B1 VH
VL: B1 VL with L26S, S57E
notes: Dual-Ig
fold change of affinity: 1 fold

B25: H183/L072 VL S52F (antibody, name in Kabat numbering, V domains shown)
VH: B1 VH
VL: B1 VL with L26S, S57F
notes: Dual-Ig
fold change of affinity: 1.2 fold

B31: H183/L072 VL S93E (antibody, name in Kabat numbering, V domains shown)
VH: B1 VH
VL: B1 VL with L26S, S98E
notes: Dual-Ig
fold change of affinity: 1 fold

B32: H183/L072 VL S93D (antibody, name in Kabat numbering, V domains shown)
VH: B1 VH
VL: B1 VL with L26S, S98D
notes: Dual-Ig
fold change of affinity: 0.7 fold

B34: H183/L072 VL S93G (antibody, name in Kabat numbering, V domains shown)
VH: B1 VH
VL: B1 VL with L26S, S98G
notes: Dual-Ig
fold change of affinity: 0.4 fold

B35: H183/L072 VL S26T (antibody, name in Kabat numbering, V domains shown)
VH: B1 VH
VL: B1 VL with L26T
notes: Dual-Ig
fold change of affinity: 1 fold

B38: H183/L072 VL S93Q (antibody, name in Kabat numbering, V domains shown)
VH: B1 VH
VL: B1 VL with L26S, S98Q
notes: Dual-Ig
fold change of affinity: 1.1 fold

B39: H183/L072 VL S26M (antibody, name in Kabat numbering, V domains shown)
VH: B1 VH
VL: B1 VL with L26M
notes: Dual-Ig
fold change of affinity: 0.6 fold

B40: H183/L072 VL S52G (antibody, name in Kabat numbering, V domains shown)
VH: B1 VH
VL: B1 VL with L26S, S57G
notes: Dual-Ig
fold change of affinity: 0.8 fold

B42: H183/L072 VL S93P (antibody, name in Kabat numbering, V domains shown)
VH: B1 VH
VL: B1 VL with L26S, S98P
notes: Dual-Ig
fold change of affinity: 0 fold

B44: H183/L072 VL S26N (antibody, name in Kabat numbering, V domains shown)
VH: B1 VH
VL: B1 VL with L26N
notes: Dual-Ig
fold change of affinity: 0.7 fold

B46: H183/L072 VL S26P (antibody, name in Kabat numbering, V domains shown)
VH: B1 VH
VL: B1 VL with L26P
notes: Dual-Ig
fold change of affinity: 0.2 fold

Further lines, results first:

fold change of affinity: 1.3 fold
B3: H183/L072 VL S93L (antibody, name in Kabat numbering, V domains shown)
VH: B1 VH
VL: B1 VL with L26S, S98L
notes: Dual-Ig

fold change of affinity: 1 fold
B6: H183/L072 VL S52R (antibody, name in Kabat numbering, V domains shown)
VH: B1 VH
VL: B1 VL with L26S, S57R
notes: Dual-Ig

fold change of affinity: 1 fold
B13: H183/L072 VL S52T (antibody, name in Kabat numbering, V domains shown)
VH: B1 VH
VL: B1 VL with L26S, S57T
notes: Dual-Ig

fold change of affinity: 1 fold
B14: H183/L072 VL S52W (antibody, name in Kabat numbering, V domains shown)
VH: B1 VH
VL: B1 VL with L26S, S57W
notes: Dual-Ig

fold change of affinity: 0.3 fold
B17: H183/L072 VL S52P (antibody, name in Kabat numbering, V domains shown)
VH: B1 VH
VL: B1 VL with L26S, S57P
notes: Dual-Ig

fold change of affinity: 1 fold
B22: H183/L072 VL S52N (antibody, name in Kabat numbering, V domains shown)
VH: B1 VH
VL: B1 VL with L26S, S57N
notes: Dual-Ig

fold change of affinity: 1.1 fold
B26: H183/L072 VL S93V (antibody, name in Kabat numbering, V domains shown)
VH: B1 VH
VL: B1 VL with L26S, S98V
notes: Dual-Ig

fold change of affinity: 1.2 fold
B27: H183/L072 VL S52K (antibody, name in Kabat numbering, V domains shown)
VH: B1 VH
VL: B1 VL with L26S, S57K
notes: Dual-Ig

fold change of affinity: 1.1 fold
B28: H183/L072 VL S93T (antibody, name in Kabat numbering, V domains shown)
VH: B1 VH
VL: B1 VL with L26S, S98T
notes: Dual-Ig

fold change of affinity: 0.1 fold
B29: H183/L072 VL S26W (antibody, name in Kabat numbering, V domains shown)
VH: B1 VH
VL: B1 VL with L26W
notes: Dual-Ig

fold change of affinity: 1.1 fold
B30: H183/L072 VL S93K (antibody, name in Kabat numbering, V domains shown)
VH: B1 VH
VL: B1 VL with L26S, S98K
notes: Dual-Ig

fold change of affinity: 1 fold
B33: H183/L072 VL S93F (antibody, name in Kabat numbering, V domains shown)
VH: B1 VH
VL: B1 VL with L26S, S98F
notes: Dual-Ig

fold change of affinity: 0.9 fold
B36: H183/L072 VL S93A (antibody, name in Kabat numbering, V domains shown)
VH: B1 VH
VL: B1 VL with L26S, S98A
notes: Dual-Ig

fold change of affinity: 1.2 fold
B37: H183/L072 VL S52H (antibody, name in Kabat numbering, V domains shown)
VH: B1 VH
VL: B1 VL with L26S, S57H
notes: Dual-Ig

fold change of affinity: 1 fold
B41: H183/L072 VL S93M (antibody, name in Kabat numbering, V domains shown)
VH: B1 VH
VL: B1 VL with L26S, S98M
notes: Dual-Ig

fold change of affinity: 1.2 fold
B43: H183/L072 VL S93W (antibody, name in Kabat numbering, V domains shown)
VH: B1 VH
VL: B1 VL with L26S, S98W
notes: Dual-Ig

fold change of affinity: 0.7 fold
B45: H183/L072 VL S26Q (antibody, name in Kabat numbering, V domains shown)
VH: B1 VH
VL: B1 VL with L26Q
notes: Dual-Ig
